This passage reports Kd results from the Immune Epitope Database (IEDB).

What is called pKd is the Kd on a negative log10 scale, so that one unit is a factor of ten.

Some targets named below: HLA-A*03:01; HLA-A*11:01; HLA-A*31:01; HLA-A*33:01; HLA-A*68:01.
Common to all, as to assay: IEDB peptide-MHC binding, purified MHC/competitive/radioactivity; filed as Kd, often an IC50 or EC50 that approximates it; ≥ and ≤ were set here for values at or beyond the usual limits of such assays
Setting [1] is: source organism: Vaccinia virus WR.
Setting [2] is: source organism: SARS coronavirus Tor2.
[3] abbreviates: source organism: Lassa virus Josiah.
Where [4] appears, read: source organism: Mammarenavirus lassaense.
Where [5] appears, read: source organism: Dengue virus 2 Jamaica/1409/1983.
The mark [6] stands for this setting: source organism: Mammarenavirus whitewaterense.

pKd: −log10 of the molar value. Bounds are passed on as bounds.

In the case of VMNIERQDY, the pKd with HLA-A*03:01 (setting [1]) is ≤ 4.21; in the assay with HLA-A*11:01 (setting [1]), 5.21; in the assay with HLA-A*31:01 (setting [1]), 5.41; in the assay with HLA-A*33:01 (setting [1]), 6.13; with HLA-A*68:01 (setting [1]), 7.27.
As for KLSYGIATVR, the pKd is 6.06 with HLA-A*03:01 (setting [2]); 5.85 with HLA-A*11:01 (setting [2]); 6.56 with HLA-A*31:01 (setting [2]); 4.82 with HLA-A*33:01 (setting [2]); 7.05 with HLA-A*68:01 (setting [2]).
In the same order, the values of ALCTLLHLHR are 6.52, 6.33, 7.29, 6.40 and 5.47.
The corresponding values for EQLQLLMPLK are 5.92, 6.82, 5.53, 5.63 and 5.75.
The corresponding values for SVVQKPVDVK are 7.21, 7.27, 5.10, ≤ 4.17 and 6.07.
Take DTSECPNERR: the negative logarithm of the Kd (pKd) with HLA-A*68:01 (source organism: Dengue virus 4 Philippines/H241/1956) is 6.91.
Take NYSKYWYLNH: the pKd with HLA-A*03:01 (setting [3]) is ≤ 4.15; with HLA-A*11:01 (setting [3]) it was ≤ 4.66; in the assay with HLA-A*31:01 (setting [3]) it was 5.83; with HLA-A*33:01 (setting [3]) it was 6.06; in the assay with HLA-A*68:01 (setting [3]) it was ≤ 4.15.
Regarding NMLNIMNRRK, the pKd with HLA-A*03:01 (source organism: Dengue virus 1 Singapore/S275/1990) was 6.74.
Take QCKDLCHMH: the pKd with HLA-A*03:01 (setting [4]) was ≤ 4.14; in the assay with HLA-A*11:01 (setting [4]), ≤ 4.11; in the assay with HLA-A*31:01 (setting [4]), 6.28; with HLA-A*33:01 (setting [4]), 4.91; with HLA-A*68:01 (setting [4]), 5.82.
For the sequence CTLPPLRYR, the pKd with HLA-A*31:01 (setting [5]) is 8.54; with HLA-A*33:01 (setting [5]) it was 7.92.
As for ELTTVFIKY, the pKd with HLA-A*03:01 (setting [1]) is 6.57; with HLA-A*11:01 (setting [1]), 5.17; in the assay with HLA-A*31:01 (setting [1]), 5.74; with HLA-A*33:01 (setting [1]), 5.26; with HLA-A*68:01 (setting [1]), 6.07.
Turning to TSCSKNEAEK, the negative-log Kd (pKd) with HLA-A*03:01 (setting [1]) was 5.42; in the assay with HLA-A*11:01 (setting [1]), 6.78; in the assay with HLA-A*31:01 (setting [1]), 5.24; with HLA-A*33:01 (setting [1]) it was ≤ 4.15; with HLA-A*68:01 (setting [1]), 6.41.
For TTGRTSLPK, the pKd is 5.28 in the assay with HLA-A*03:01 (setting [3]); 5.75 in the assay with HLA-A*11:01 (setting [3]); 4.74 with HLA-A*31:01 (setting [3]); 4.84 with HLA-A*33:01 (setting [3]); 4.88 with HLA-A*68:01 (setting [3]).
As for LSCIRNASK, the pKd is 6.32 with HLA-A*03:01 (setting [1]); 6.30 with HLA-A*11:01 (setting [1]); 6.52 with HLA-A*31:01 (setting [1]); 6.11 with HLA-A*33:01 (setting [1]); 6.56 with HLA-A*68:01 (setting [1]).
For SFKDQSKYCH, the pKd is ≤ 4.15 in the assay with HLA-A*03:01 (setting [6]); ≤ 4.16 with HLA-A*11:01 (setting [6]); 5.94 with HLA-A*31:01 (setting [6]); 5.06 with HLA-A*33:01 (setting [6]); ≤ 4.15 with HLA-A*68:01 (setting [6]).
As to KSQAKKPEVR, the pKd with HLA-A*03:01 (setting [1]) was ≤ 4.66; in the assay with HLA-A*11:01 (setting [1]), 4.97; with HLA-A*31:01 (setting [1]), 6.52; with HLA-A*33:01 (setting [1]) it was ≤ 4.43; with HLA-A*68:01 (setting [1]), ≤ 4.15.
Take LVTRKCPQK: the pKd with HLA-A*03:01 (setting [1]) was 7.20; with HLA-A*11:01 (setting [1]) it was 7.76; in the assay with HLA-A*31:01 (setting [1]) it was 5.88; with HLA-A*33:01 (setting [1]), 5.29; with HLA-A*68:01 (setting [1]), 7.71.
As to VVYRAFDIY, the pKd was 6.79 with HLA-A*03:01 (setting [2]); 6.83 with HLA-A*11:01 (setting [2]); 5.10 with HLA-A*31:01 (setting [2]); ≤ 4.60 with HLA-A*33:01 (setting [2]); 5.48 in the assay with HLA-A*68:01 (setting [2]).
Regarding DMQKFTILEY, the pKd is ≤ 4.27 with HLA-A*03:01 (setting [1]); 5.45 with HLA-A*11:01 (setting [1]); ≤ 4.15 with HLA-A*31:01 (setting [1]); ≤ 4.15 with HLA-A*33:01 (setting [1]); ≤ 4.61 with HLA-A*68:01 (setting [1]).
On to EAVYGNIKHK, for which the pKd with HLA-A*03:01 (setting [1]) was 4.73; with HLA-A*11:01 (setting [1]) it was 4.93; with HLA-A*31:01 (setting [1]), 4.86; with HLA-A*33:01 (setting [1]), ≤ 4.15; in the assay with HLA-A*68:01 (setting [1]), 7.21.
In the same order, the values of DSEPISILDR are ≤ 4.15, ≤ 4.21, ≤ 4.28, 5.34 and 6.29.
The corresponding values for KQLCYCPASK are 7.57, 7.86, 7.51, ≤ 4.51 and 4.95.
Turning to RTAIHSLYGR, the pKd with HLA-A*11:01 (source organism: Mammarenavirus guanaritoense) was 6.85.
Consider ETCVYNMMGK, for which the pKd with HLA-A*11:01 (setting [5]) is 5.93; with HLA-A*68:01 (setting [5]), 7.72.
In the case of KLSAGVEFLK, the pKd in the assay with HLA-A*03:01 (setting [2]) was 7.83; in the assay with HLA-A*11:01 (setting [2]), 7.55; in the assay with HLA-A*31:01 (setting [2]) it was 6.29; with HLA-A*33:01 (setting [2]) it was 5.21; with HLA-A*68:01 (setting [2]), 7.00.
